Results on 1 sequence are retold here after PMC3828344.

This data set deals with vesicular stomatitis virus particle (Vesicular stomatitis virus). As to the kind of experiment: electrochemical aptasensor (SWV).

As for “GCTAGCGAATTCCGTACGAAGGGCGAATTCCACATTGGGCTGCAGCCCGGGGGATCC [thiolated AG3 (aptasensor)]”, the binding signal (% of current decrease) amounted to 9.1.
